Experiment [1] has as its target Recombinant gI protein (~46 kDa) from HSV-2 (BMP1052b or BMP1292) (HSV-2). Kind of experiment: indirect ELISA on coated HSV-2 gI, one mouse.
Experiment [2] has as its target Recombinant gE/gI heterodimer protein (BMP1299) from HSV-1 (HSV-1) (UniProt P06487). Kind of experiment: indirect ELISA on coated HSV-1 gE/gI.
Experiment [3] has as its target Recombinant gE protein (~51 kDa) from HSV-2 (BMP1049 or BMP1291) (HSV-2). Briefly: indirect ELISA on coated HSV-2 gE. On the technique in general: In an ELISA, binding on a coated surface is turned into a signal by an enzyme label.
Experiment [4] concerns the target Recombinant gI protein (~46 kDa) from HSV-2 (BMP1052b or BMP1292) (HSV-2). Briefly: indirect ELISA on coated HSV-2 gI.

Sequence of UniProt P06487 (P06487 whole entry, one chain of several): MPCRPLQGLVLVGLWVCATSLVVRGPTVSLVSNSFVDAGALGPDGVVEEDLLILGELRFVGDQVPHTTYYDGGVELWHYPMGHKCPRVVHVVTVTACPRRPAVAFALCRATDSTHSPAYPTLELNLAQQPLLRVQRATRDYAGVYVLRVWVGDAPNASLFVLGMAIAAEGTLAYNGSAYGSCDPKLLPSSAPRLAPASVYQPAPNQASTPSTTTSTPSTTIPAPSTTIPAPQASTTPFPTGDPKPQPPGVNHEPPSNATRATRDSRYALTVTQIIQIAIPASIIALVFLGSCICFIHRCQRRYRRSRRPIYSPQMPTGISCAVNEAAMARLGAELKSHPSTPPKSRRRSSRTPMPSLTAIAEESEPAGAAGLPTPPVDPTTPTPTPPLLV

In the case of “serum of CB6F1 mice injected with NaCl 150 mM (Example 1, group 6, negative control) (antibody)”, in experiment [1], the IgG titer came to 135 EU/mL.

For “serum of CB6F1 mice injected with NaCl 150 mM (Example 2, group 7, negative control) (antibody)”, the IgG titer in experiment [2] came out at 11 EU/mL.

For “serum of CB6F1 mice injected with NaCl 150 mM (Example 3, group 7, negative control) (antibody)”, the IgG titer in experiment [3] and in experiment [4] was 17 EU/mL throughout.

The values are drawn from patent US20240091345A1.
